Laboratory results: patent publication US20250352661A1 (MYTHIC THERAPEUTICS, published 2025)
Where a chain is given by its changes, count along the chain named. Numbers in names are those of the source.

T1: Human LRRC15 Protein, His Tag (Acro Biosystems) (human, UniProt Q8TF66 22-538, limits assumed)
T1 construct: not shown: His tag
T1 sequence (looked up): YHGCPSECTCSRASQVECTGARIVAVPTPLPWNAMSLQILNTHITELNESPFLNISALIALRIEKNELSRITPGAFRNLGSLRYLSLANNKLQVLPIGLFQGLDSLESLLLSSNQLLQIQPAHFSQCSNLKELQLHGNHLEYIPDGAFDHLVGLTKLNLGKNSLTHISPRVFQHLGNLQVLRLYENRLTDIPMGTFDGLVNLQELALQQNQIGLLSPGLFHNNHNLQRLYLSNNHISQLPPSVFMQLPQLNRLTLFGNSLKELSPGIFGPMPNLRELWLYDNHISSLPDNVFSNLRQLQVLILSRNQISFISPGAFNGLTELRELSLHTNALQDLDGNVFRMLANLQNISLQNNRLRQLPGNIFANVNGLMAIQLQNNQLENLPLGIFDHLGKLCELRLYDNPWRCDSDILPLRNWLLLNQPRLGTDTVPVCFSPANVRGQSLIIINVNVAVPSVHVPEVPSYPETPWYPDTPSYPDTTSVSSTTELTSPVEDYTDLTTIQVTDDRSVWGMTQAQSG

T2: Human LRRC15 Protein, His Tag (Acro Biosystems) (human, UniProt Q8TF66 22-538, limits assumed)
T2 construct: Bought protein with His tag
T2 sequence (looked up): T1 sequence (looked up)

B1: MYT7954 (antibody, V domains shown)
VH: QQQLVESGGGLVKPGASLTLTCKASGFSFSGSYWICWVRQAPGKGLEWIGCINGGSLDITYYASWAKGRFTISKASSTTVTLQKTSLTAADTATYFCASDTSYTAYGNFYFNLWGPGTLVTVSS
VL: AQVLTQTASPVSAAVGGTVTINCQSSQSVLNNNWLAWYQQKPGQPPKLLIYDASSLASGVPSRFKGSGSGTQFTLTISDLESDDAATYYCQGEFSCGSHDCNAFGGGTEVVVKG
notes: also called 24D9 VL A99H
B2: MYT7957 (antibody, V domains shown)
VH: B1 VH
VL: B1 VL with H99A, N102H
notes: tested as culture supernatant; also called 24D9 VL N102H
B3: MYT7958 (antibody, V domains shown)
VH: B1 VH
VL: B1 VL with H99A, A103H
notes: tested as culture supernatant; also called 24D9 VL A103H
B4: MYT7955 (antibody, V domains shown)
VH: B1 VH
VL: B1 VL with H99A, D100H
notes: tested as culture supernatant; also called 24D9 VL D100H
B5: MYT6122 (antibody, V domains shown)
VH: QEQLEESGGDLVKPGASLTLTCTASGLDFRRTNYICWVRQAPGKGLEWIGCIYIADVVHYYASWAKGRFTFSKTSSTTVTLQMTSLTAADTATYFCARGADGGFVYGMDLWGPGTLVTVSS
VL: DVVMTQTPASVSEPVGGTVTIKCHASQSIGNYLSWYQQKPGQRPKRLIYSASTLPSGVPSRFKGAGSGTEFTLTISDLESADAATYYCQNNYWLAGYGHPFGGGTEVVVK
notes: rabbit 15G7 VL Q24H; chimeric, human constant regions
B6: MYT6123 (antibody, V domains shown)
VH: B5 VH
VL: B5 VL with H24Q, A25H
notes: rabbit 15G7 VL A25H; chimeric, human constant regions
B7: MYT6134 (antibody, V domains shown)
VH: B5 VH
VL: B5 VL with H24Q, A51H
notes: rabbit 15G7 VL A51H; chimeric, human constant regions
B8: MYT6129 (antibody, V domains shown)
VH: B5 VH
VL: B5 VL with H24Q, N31H
notes: rabbit 15G7 VL N31H; chimeric, human constant regions
B9: MYT6144 (antibody, V domains shown)
VH: B5 VH
VL: B5 VL with H24Q, W93H
notes: rabbit 15G7 VL W93H; chimeric, human constant regions
B10: MYT6136 (antibody, V domains shown)
VH: B5 VH
VL: B5 VL with H24Q, T53H
notes: rabbit 15G7 VL T53H; chimeric, human constant regions
B11: MYT6146 (antibody, V domains shown)
VH: B5 VH
VL: B5 VL with H24Q, A95H
notes: rabbit 15G7 VL A95H; chimeric, human constant regions
B12: MYT6142 (antibody, V domains shown)
VH: B5 VH
VL: B5 VL with H24Q, N91H
notes: rabbit 15G7 VL N91H; chimeric, human constant regions
B13: MYT6131 (antibody, V domains shown)
VH: B5 VH
VL: B5 VL with H24Q, L33H
notes: rabbit 15G7 VL L33H; chimeric, human constant regions
B14: MYT6124 (antibody, V domains shown)
VH: B5 VH
VL: B5 VL with H24Q, S26H
notes: rabbit 15G7 VL S26H; chimeric, human constant regions
B15: MYT6127 (antibody, V domains shown)
VH: B5 VH
VL: B5 VL with H24Q, I29H
notes: rabbit 15G7 VL I29H; chimeric, human constant regions
B16: MYT6149 (antibody, V domains shown)
VH: B5 VH
VL: B5 VL with H24Q, G98H
notes: rabbit 15G7 VL G98H; chimeric, human constant regions
B17: MYT6132 (antibody, V domains shown)
VH: B5 VH
VL: B5 VL with H24Q, S34H
notes: rabbit 15G7 VL S34H; chimeric, human constant regions
B18: MYT6133 (antibody, V domains shown)
VH: B5 VH
VL: B5 VL with H24Q, S50H
notes: rabbit 15G7 VL S50H; chimeric, human constant regions
B19: MYT6143 (antibody, V domains shown)
VH: B5 VH
VL: B5 VL with H24Q, Y92H
notes: rabbit 15G7 VL Y92H; chimeric, human constant regions
B20: MYT6139 (antibody, V domains shown)
VH: B5 VH
VL: B5 VL with H24Q, S56H
notes: rabbit 15G7 VL S56H; chimeric, human constant regions
B21: MYT6141 (antibody, V domains shown)
VH: B5 VH
VL: B5 VL with H24Q, N90H
notes: rabbit 15G7 VL N90H; chimeric, human constant regions
B22: MYT6128 (antibody, V domains shown)
VH: B5 VH
VL: B5 VL with H24Q, G30H
notes: rabbit 15G7 VL G30H; chimeric, human constant regions
B23: MYT6126 (antibody, V domains shown)
VH: B5 VH
VL: B5 VL with H24Q, S28H
notes: rabbit 15G7 VL S28H; chimeric, human constant regions
B24: MYT6151 (antibody, V domains shown)
VH: B5 VH
VL: B5 VL with H24Q, P100H
notes: rabbit 15G7 VL P100H; chimeric, human constant regions
B25: MYT6145 (antibody, V domains shown)
VH: B5 VH
VL: B5 VL with H24Q, L94H
notes: rabbit 15G7 VL L94H; chimeric, human constant regions
B26: MYT6147 (antibody, V domains shown)
VH: B5 VH
VL: B5 VL with H24Q, G96H
notes: rabbit 15G7 VL G96H; chimeric, human constant regions
B27: MYT6148 (antibody, V domains shown)
VH: B5 VH
VL: B5 VL with H24Q, Y97H
notes: rabbit 15G7 VL Y97H; chimeric, human constant regions
B28: MYT6140 (antibody, V domains shown)
VH: B5 VH
VL: B5 VL with H24Q, Q89H
notes: rabbit 15G7 VL Q89H; chimeric, human constant regions
B29: MYT6130 (antibody, V domains shown)
VH: B5 VH
VL: B5 VL with H24Q, Y32H
notes: rabbit 15G7 VL Y32H; chimeric, human constant regions
B30: MYT6125 (antibody, V domains shown)
VH: B5 VH
VL: B5 VL with H24Q, Q27H
notes: rabbit 15G7 VL Q27H; chimeric, human constant regions
B31: MYT6137 (antibody, V domains shown)
VH: B5 VH
VL: B5 VL with H24Q, L54H
notes: rabbit 15G7 VL L54H; chimeric, human constant regions
B32: MYT6135 (antibody, V domains shown)
VH: B5 VH
VL: B5 VL with H24Q, S52H
notes: rabbit 15G7 VL S52H; chimeric, human constant regions
B33: MYT6150 (antibody, V domains shown)
VH: B5 VH
VL: B5 VL with H24Q, H99A
notes: rabbit 15G7 VL H99A; chimeric, human constant regions
B34: MYT6138 (antibody, V domains shown)
VH: B5 VH
VL: B5 VL with H24Q, P55H
notes: rabbit 15G7 VL P55H; chimeric, human constant regions

target: T1, Human LRRC15 Protein, His Tag (Acro …); experiment: BLI; dissociation pH 7.4 black, pH 5.4 grey [D00016 FIG. 3B]

Binder | binding result
B1 | binds
B2 | no binding (tested: 50 nM LRRC15)
B3 | no binding (tested: 50 nM LRRC15)
B4 | no binding (tested: 50 nM LRRC15)

target: T2, Human LRRC15 Protein, His Tag (Acro …); experiment: BLI; dissociation pH 7.4 black, pH 5.4 grey [D00008 FIG. 1F]
Text: For each individual plot, antigen binding proteins were captured on anti-human Fc biosensors and associated with LRRC15 at pH 7.4. Dissociation was at pH 7.4 (black) or pH 5.4 (grey). Major X-axis ticks=100 seconds, with left dashed vertical line=0 seconds. Major Y-axis ticks=0.5 nm and octet plots are shown MYT5712 and MYT6080-MYT6121.
Multiple LRRC15-binding monoclonal antibodies have been described in the literature and can be used as a template for engineering pH-dependent binding. We selected discovery RabMAb clone 15G7 (rabbit VH SEQ ID NO: 378, rabbit VL SEQ ID NO: 451; humanized VH SEQ ID NO: 382, humanized VL SEQ ID NO: 455) as a LRRC15-binding monoclonal antibody for pH-engineering via histidine scanning. […] To generate pH-dependent sequence variants, individual amino acid residues within the heavy chain CDRs were systematically substituted with a histidine (or alanine if H was already present in a given position; e.g., MYT6099), one at a time (rabbit, MYT6080-6121). Desirable mutations were transferred to a humanized framework (humanized, MYT 8387-8411). After allowing for four days of protein expression, cell culture supernatants were collected, quantified by SDS-PAGE analysis, and the pH dependence of the variant was evaluated using biolayer interferometry (BLI) on an Octet RED 96e instrument. Briefly, cell culture supernatants were diluted based on qualitative expression level of the variant determined by visual examination of SDS-PAGE gels, 5 μL of cell culture supernatant was diluted into 195 μL of 1×PBST, pH 7.4 for high expressors, 25 μL of cell culture supernatant was diluted into 175 μL of 1×PBST, pH 7.4 for medium expressors and 100 μL of cell culture supernatant was diluted into 100 μL of 1×PBST, pH 7.4 for low expressors for loading onto the sensor tips.

Binder | binding result
B5 | binds
B6 | binds
B7 | binds
B8 | binds
B9 | binds
B10 | binds
B11 | binds
B12 | binds
B13 | binds
B14 | binds
B15 | binds
B16 | binds
B17 | binds
B18 | binds
B19 | binds
B20 | binds
B21 | no binding (tested: 50 nM LRRC15)
B22 | binds
B23 | binds
B24 | binds
B25 | no binding (tested: 50 nM LRRC15)
B26 | binds
B27 | binds
B28 | binds
B29 | binds
B30 | binds
B31 | binds
B32 | binds
B33 | binds
B34 | binds
